Measured values taken from paper PMC9908967 (Nature Communications, 2023).

What was measured:
α-cobratoxin = α-cobratoxin (Naja kaouthia (monocled cobra), UniProt P01391); assay: SPR; BIAcore T100; […]; 10 mM HEPES, 150 mM NaCl, 3 mM EDTA, 0.05% P20, pH 7.4; 40 µL/min; 1:1 Langmuir model, global fit; conditions: both partners purified
α-elapitoxin = α-elapitoxin (Dendroaspis polylepis, UniProt P01396); assay: as above; conditions: both partners purified
α-bungarotoxin = target: T1, α-bungarotoxin (Bungarus multicinctus, UniProt P60615); assay: SPR; conditions: both partners purified
T1 construct: source: bought: Latoxan SAS (L8115)

[1] = target: T2, long neurotoxin from N. melanoleuca (Naja melanoleuca, UniProt P0DQQ2); assay: native MS; conditions: one partner purified
T2 construct: source: in SEC fractions of N. melanoleuca whole venom (Latoxan L1318)

[2] = target: T3, long neurotoxin 2 from O. hannah (Ophiophagus hannah, UniProt A8N285); assay: native MS; conditions: one partner purified
T3 construct: source: in SEC fractions of O. hannah whole venom (Latoxan L1357)

[3] = target: T4, long neurotoxin 2 from N. melanoleuca (Naja melanoleuca, UniProt P01388); assay: native MS; conditions: one partner purified
T4 construct: source: in SEC fractions of N. melanoleuca whole venom (Latoxan L1318)

[4] = target: long neurotoxin 4 from N. naja (Naja naja, UniProt P25672); assay: native MS; conditions: one partner purified

B1: 2554_01_D11 Fab (Fab, V domains shown)
VH: QVQLVQSGAEVKKPGSSVKVSCKASGGTFSSYAISWVRQAPGQGLEWMGGIIPIFGTANYAQKFQGRVTITADESTSTAYMELRSLRSDDTAVYYCARDNLGYCSGGSCYSDYYYYYMDVWGQGTLVTVSS
VL: NFMLTQPRSVSESPGKTVTISCTRSSGSIGSDYVHWYQQRPGSSPTTVIYEDNQRPSGVPDRFSGSIDSSSNSASLTISGLKTEDEADYYCQSYDRSNHEVVFGGGTKLTVL
notes: source: Expi293 cells, transient, purified (anti-CH1 resin)
B1 was tested. Which Kd (α-cobratoxin) did it give?
Its Kd is 1.78 nM.

And the koff (α-cobratoxin)?
The koff was 0.000229 s⁻¹.

What about the Kd (α-elapitoxin) of the same binder?
Its Kd is 1.69 nM.

And the koff (α-elapitoxin)?
Its koff is 0.000177 s⁻¹.

Does B1 bind (α-bungarotoxin)?
Result: binds

B2: 2555_01_A01 Fab (Fab, V domains shown)
VH: B1 VH
VL: SYELTQPPSVSVAPGRTATITCEGDNIGQQIVHWYQQKPGQAPVAVISSDSDRPSGIPERFSGSNSGNTATLTISRVEAGDEADYYCQVWDSGSDHVVFGGGTKVTVL
notes: as for B1
What does the source list for B2?
Kd (α-cobratoxin): 8.41 nM; koff (α-cobratoxin): 0.0017 s⁻¹; Kd (α-elapitoxin): 1.81 nM; koff (α-elapitoxin): 0.000181 s⁻¹

B3: 2554_01_D11 IgG (antibody, V domains shown)
VH: B1 VH
VL: B1 VL
notes: also called IgG 2554_01_D11; copies: 2 + 2
Does B3 bind [1]?
Result: binds

Does B3 bind [2]?
Result: binds

Does B3 bind [3]?
Result: binds

Does B3 bind [4]?
Result: binds
